Measurements from the DeepSol protein solubility set.

Experiment: soluble on expression in E. coli; label from the status in PepcDB or PDB records

Sequence | soluble on expression in E. coli
MSLKLHHLNDSRSFRILWLLEEIGQPYEIIRYQRDKETHLAPETLKDIHPLGKSPVIELDGKIIAESGSITEVLIKEFAPHLAPNEKSPEYIDYLQWIHFSESSAMLPLLLKIFNEFETRSGTDLKFLKNYAEIEFNKVFSYLNNHLNNKKFLVEDRLTGADFMLGFVVKGALNLLKSSGAFPHIESYITNIENQISYKRALDIDANEGHHHHHH | soluble
MSLKLISNDLRDGDKLPHRHVFNGMGYDGDNISPHLAWDDVPAGTKSFVVTCYDPDAPTGSGWWHWVVVNLPADTRVLPQGFGSGLVAMPDGVLQTRTDFGKTGYDGAAPPKGETHRYIFTVHALDIERIDVDEGASGAMVGFNVHFHSLASASITAMFSEGGSHHHHHH | soluble
MSLKLTSYTKTMQGRRKKQEDRYLVITDLTKYIDSNDYKTLYFYKKNPLYFYSIFDGHRGIKACEYCMSHIIKNIIYYFYNQGSAGAGTDEQIMEYIKLAFLKTDEQFLKVSKFPNHGCTIISLIIFRNKMFVANLGDCRAIGVVNISNTLKTEVLSNDHKPNDPKEKERIKKMGGDVICLQNVYRVKANARKNNKDKPSLLERLSMKEEVYLAVSRAIGDKDFKFNNVISATPDVICKEDNLYYSAHEVNYHYVVMACDGVWDTMSNKDIVKILQTYNNDPDKACSEIIKTAYAYGSQVHEGHHHHHH | not soluble
MSLKLWENGTFYQMTAEGEQVSAVLTKNGQIHAVGEVADLKKQYATEIDETIDLEGKVVFPGFVDAHIHLLWYGQALERLNLNQTTTKKEALALILERTKQLASEEWLFVEGYDENKWSDEQTLISLVDLDGVSTTNPILVRRIDYHSVSINSALKAHIENFSENGFDGGGEIVRDKAGNFTGILRDNATTLAIDAFPAATPAELNAWLKIAITDLWSKGITGAHSEDLHYFTGFESTFAAFRNTVGANRLPFRAHLLIHHAELANFSTSKESFMSGDKFLELGAMKIFYDGTVGSRTALMSAGYADNPNEKGLQIHSDEAFEDLVQSARKAGLPVAIHILGDQAFANVIRTLRANPPKEGQYDRLIHTPWLTKELIAEAEGLPILFDVQPQFMASDLPWAIDVLGENHPPLAFAWNSLLRAGFPLAGGSDAPIEVPNPFWGIHAAVTRTANADLNGVKYWPEESLTVYEAIELYTKGAAFASYKTTSRGQIAPGFVADFTILAEDPFLIKPANLRHLEVMMTVVNEQVVYKKEGHHHHHH | soluble
MSLKMEDIAISITGYSYSNIKETIPDGVDKEEIAAVYEEIIDEYLQKGIPREIPALINVSGVPGAGKSTFCKKLLAMPENSSAIYIGFDAIMENERLPYIREEVNHAEEAFKRWELSARIAGYELLKRAIENKYLIIFDHSSALSQHIDLFNLLLSEGYEVHFNFIFIPEEEARRRAKNRKRYIPPYYIEERSKTLQYLLPEYKRICTTFKQIEPMRTRLIIARHGNTFRPEETPTRVGAKTDLPLVEEFKGRSIGRYLKEHDMIPDVIYAAPLLRTMQTARLAVQTIGLDSDISPLNAFVEIDYGVDENKTEEEVRLRLGNGNIEKGKKIIEDWDKNAVVPDGWKVDPDQIIHTWLDFAEKTVIPHQTTLLVTSNGIIRFAPYLTGDFEKFAQEHKIKVAPGGLCIFDKNDGDSFWTCSAWNVKPYELYADSEGHHHHHH | soluble
MSLKMIISYGMPKSASTFAWLVIKKICLNSRLDDVVDLSTAAKGNDSVEDYIDGSVKVNAAQITREVGERCCVIKTHSSAVHFRTLVGGSAFFLPFAQHRDPRDVALSLMDHARRSRELGIADYADCLSIEGCLPVIDSSIENFIEWVDQYSAIPISYDYLCFNGLACLSFIASALDCDVDCAAILKGFERKESIAQFNKGIRHRWVDEMPQAQARMLFRRYEEYYDRFGAEGHHHHHH | not soluble
MSLKNLFNKYNDMKGVSSVYISKAMMELNPNLFMKDLYIGKVAEHLNSVQVLSTHDNKVREEMAKDIRSLVQSSKYELLMKQKSTVSGSEVYVNRKGSKVKELIMVMNGASSLKFVYMEGDMTTDDIKKLMLYQSTSQNFIISGDLFYANNKPVTYFKKGNSDNQKDMAELSGTYNLNSIDTNYKEELSTLNDKLKRIDQGLKNMNIKEGHHHHHH | soluble
MSLKNPCNAEFQNFCIHGECKYIEHLEAVTCKCQQEYFGERCGEKSMKTHSMIDSSEGHHHHHH | not soluble
MSLKPCFGYIRVSTERQGDGASLEAQKDAITGFASQNNLEIVRWFEERETASKTGRPIFGEMMNALVSGAAEGLILHKVDRTARNFSDWSRLHEVAKLGIDVYFAADSLDFGTRGGQLLADIQMALAADYSRNLSQEVKKGIYGRIKNGVYPFRAPLGYLDTGGGNVKAIDPIKAPLVSQVFELYCSGDYSITSLTEEMQRRGLKGVGERPVVRRNIESILRNPFYCGKMLVRGKLYDGAHEPLISTAQYRRVAAIKAQRFVKKSTKHELLFRGLFTCGACGQVLTGERQKAHVYYRCHTPRCGRGAIREDRLEETLREKLARLEISPEDQVTLESDIRAWLNKDGVKDIEKSLRLRISDATARLDRLTDLLVDGAIDKPAYELRKQNVEFEKQQLREELDALERSRAEEKDLKALLALAADLSSLYDAAPPPKKRELIRNCLVAPCVMDGQLVSHPADWLVSLRKSPKTDEKSHSAPQAILEGVRVMHAVVDVEGHHHHHH | soluble
MSLKQLVVKIETDNGIIGWGEAQSPVSPNTTATIIKDIVEPLTIGKDIYDVESIWHNNYSAKRERGHYTGFYIDAICGVDIAIWDAIGKSLKMPTCKAMGGAHRKSVALYNGIGGTEPEEVADQAEWSVSKGYKFVKMHLKETLEKDIEIARKVRERVGDSIGIMIDVHMGFDTFNVTKLGKELEKLNLLWLESPSDPTDIPGLCEISRSLDIPIANGEWTRTKYEMREIFEKRAYDISMPDIARTGLTGGKQIASIAQLYNIPIAPHVGGGGIVSVASTLQFSLNTPNFLIMEHSEQGHAVKAMILSESFDAENGQYSLPNKPGLGIDVDENKLEKYKINPSEGHHHHHH | soluble
MSLKQTNPFVYSNDNKRYHTWNYCLREEFGQKTYKVALDGGFDCPNRDGTVAHGGCTFCSAAGSGDFAGNRALDLKIQFQQVRDKMQTKWKDGKCIAYFQAFTNTHAPVAELREKFETVLNEPGVVGLSIATRPDCLPDDVVEYLAELNERTYLWLELGLQSAHDETGRLINRAHDYDCYVEGVRKLQKHNIRICTHIINGLPKETPEMMMETTRKVVESGVDGIKIHLLHLLKGTPMVEDYKKGDLEFLTRDGYVNLVADQLEILPPEMVIHRITGDGGVDDLIGPVWSLNKFEVLNAIDAELVRRDSWQGKLYQPVEVNAKEGHHHHHH | soluble
MSLKRITMQDIADRLNISKNSVSQALRGKEGVSKETRELVKRVAKEMGYEYPASRAKSRGKPPRQIALIASDRTFSLKFFGEIYLSIEQEALSHGMKLHIQSVNKEQKERLLLPSFIEEKQVDGVIVLSHISTEYIQQIVATGIPTVLVDHHHPNIPADAVLTNNRFGAYVAVQHLLELNHTDIAFVGDVNYSPSYQERYEGYLLALKDYGVKPNEEWMFCQAQEDETVIAGYIRELKRQPTAWFCVNDGLGFFVSTGLQQYGLKVPDDVSVCSFDNGQLSQIATPKITTVDIDLKRYGKRAVELLRWRWDNPNEPFQEVLLSTKLIKRESTAAKPTREGHHHHHH | soluble
MSLKRIYGSNRYETSIMVSKEGWDKSSYAVISRGDNFADALCAVPLSKKYNAPILLIGKDKLNNNLKSELKRLNVSKVFITGGEGVISKTLEGEIKNIPNIKEVKRLGGKDRYETSKLIAESVGCNGEIVVTAGTNSSDTLSISPIAANKNMPILLTAKDKNLMQKYLKSNKVNKTFVIGGEKCVSKEIENILPNVERIYGENRYETNEKIIKRFSNSLDFKNVYIALAQSQRGDEFADALSSAALAAQKNSPIILIYKDIYKNTKDILNTKLSNESIVSILGGEKLISDNILDNLAISKNEGHHHHHH | not soluble
MSLKSLKAKFRKSDTNEWNKNDDRLLQAVENGDAEKVASLLGKKGASATKHDSEGKTAFHLAAAKGHVECLRVMITHGVDVTAQDTTGHSALHLAAKNSHHECIRRLLQSKCPAESVDSSGKTALHYAAAQGCLQAVQILCEHKSPINLKDLDGNIPLLLAVQNGHSEICHFLLDHGADVNSRNKSGRTALMLACEIGSSNAVEALIKKGADLNLVDSLGYNALHYSKLSENAGIQSLLMSKISQDADLKTEGHHHHHH | soluble
MSLKSTVLLIDDDQDVLDSYLHLMSIAGLTAKAVIDPTQAMSHIQPDWNGVVLLDMYMPQLHGMELLKQIKAVDDKIPVIVITGHGDIPMAVEAVKMGACDFLEKPINPPQLLTLIKQHLELRRSFIEQKLLLSRSVKRELVGKSAQMEQIRSHVAQYALLNRHVVIVGESGCGRHTIAYLIHQLTTNNGHLPWVELVASAKTEWSTVEPKVQESAGGTLLIDHIELLSEEVQRNVVQSLLNQERLNRPRTRVIAVIDQPPEQLIAQNQLLPELYYLLNQGQIDVPLLRQRPDDIAALFHYFLKQSCYKLGKPMPNVEPHYLALLRAHQWPGNVRELRNVAELYAIGIVKLAGKERLYNQEEMLSPLDELVDDYEKQVIEDALFLFSGRVADAANYLQVPRKKLYLRMKKHGLEKDAFKAREGHHHHHH | soluble
MSLKSYRPIELAKMFNLHSNTIRFYESIGYISKASRKPNGYREFTDKHILQLTICRHILGYRYTNRHIRDTGKLIIICSAESKLIEGKQYAQDYIKIIQNEIEIAEKTAQLLHKWAELKRDTDNSDSIEKFYTRNEVACLLGVTSEAVRNWERNDLIKSDKRGYRNAVLFNNIDLDRIRIIYMLRQTGYSMSAIHRCLMVYDKGQTELVVAALNKTDERELLSVGDCWLSELKKLESAAEEIPLIFDKLKESEGHHHHHH | soluble
MSLKTNKLINKSFRFKQFSIEEGTCGMPISTDGVLLGSWAFSLSPTTILDIGCGTGLLSLMCAQRFPHAHITALDIEQTAYLAAEHNRQQSPWAERIECQHADILHWQPSKRFAAIICNPPYFNSGETAQHQVRATARHTISLQHQALIERLPQLLEPDGVASFILPKAEGEDFIALARQAGLFVGRYCQVQPTTDKPVHRLLFELHLSPCLPVETRLVIREQQGYSEAFCQLTRDFYLKMSEGHHHHHH | soluble
MSLKVDSFSLPLSSPLATARETISQRSGFVVRYDHRGETGVGEATPLPGWTESLDDCQRGLNDAATVAAGGGHTDVLLSLDAASVPAARHGFATALLDADARADGVPLYQWFDSERHCNRVPVNATVGDGSPAETADAVERAVEAGYDCCKMKVGKRTVDEDVARVRTVRERVGDDVTLRADANGAWSRDRAQEAFDRLAPLDVAYVEQPLPADDLTGHAGLRGNGVGVALDESLVDRRVDSVLDADAADVLILKPMVLGGPGNAHTLALRAREQGVEPVVTTTIDAVVARLAALHVAAAIPDVAACGLATGDRLAADLAPDPTTVTDGAMSVPQSTGLGIDPTEVGTDAEGHHHHHH | soluble
MSLKVTFEQLKAAFNRVLISRGVDSETADACAEMFARTTESGVYSHGVNRFPRFIQQLENGDIIPDAQPKRITSLGAIEQWDAQRSIGNLTAKKMMDRAIELAADHGIGLVALRNANHWMRGGSYGWQAAEKGYIGICWTNSIAVMPPWGAKECRIGTNPLIVAIPSTPITMVDMSMSMFSYGMLEVNRLAGRQLPVDGGFDDEGNLTKEPGVIEKNRRILPMGYWKGSGMSIVLDMIATLLSDGASVAEVTQDNSDEYGISQIFIAIEVDKLIDGPTRDAKLQRIMDYVTSAERADENQAIRLPGHEFTTLLAENRRNGITVDDSVWAKIQALEGHHHHHH | soluble
